Data on three molecules can be found in paper doi:10.1101/2023.07.25.550451 (bioRxiv, 2023).

Read-outs that look alike come from different tables or passages of the source. * marks the point of attachment. Biotin = O=C1N[C@H]2[C@H](CS[C@H]2CCCCC(=O)*)N1

In assay [1] the target is T1, p97, wild-type, full-length (recombinant) (human, UniProt P55072 1-806). The experiment in a line: pull-down.
Assay [2] deals with T1, p97, wild-type, full-length …. The experiment in a line: pull-down. This is another data set of the same source.

T1 sequence (P55072 whole entry): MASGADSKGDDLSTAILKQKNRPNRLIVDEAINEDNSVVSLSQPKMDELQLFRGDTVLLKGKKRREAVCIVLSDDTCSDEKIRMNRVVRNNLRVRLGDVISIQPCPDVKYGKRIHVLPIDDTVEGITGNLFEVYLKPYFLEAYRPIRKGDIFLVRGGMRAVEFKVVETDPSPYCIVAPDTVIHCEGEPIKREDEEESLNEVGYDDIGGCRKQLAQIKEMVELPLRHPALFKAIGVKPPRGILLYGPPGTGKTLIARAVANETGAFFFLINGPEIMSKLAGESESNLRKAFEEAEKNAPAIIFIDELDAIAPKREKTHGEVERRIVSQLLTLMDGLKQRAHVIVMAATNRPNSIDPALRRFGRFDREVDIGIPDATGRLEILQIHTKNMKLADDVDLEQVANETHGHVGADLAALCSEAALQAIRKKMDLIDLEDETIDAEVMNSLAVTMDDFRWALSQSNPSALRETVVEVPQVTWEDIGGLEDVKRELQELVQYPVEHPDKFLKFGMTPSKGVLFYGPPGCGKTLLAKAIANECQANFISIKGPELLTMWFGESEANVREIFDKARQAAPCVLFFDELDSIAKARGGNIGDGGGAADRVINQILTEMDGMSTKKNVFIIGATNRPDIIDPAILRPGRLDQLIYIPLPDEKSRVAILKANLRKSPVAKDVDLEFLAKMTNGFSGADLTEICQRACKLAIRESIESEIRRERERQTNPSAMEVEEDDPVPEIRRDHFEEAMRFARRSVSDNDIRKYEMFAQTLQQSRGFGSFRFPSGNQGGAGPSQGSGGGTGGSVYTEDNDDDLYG

B1: GST-FAM104A isoform 1 (natural protein)
chain: not shown
As to B1, in assay [1], the binding result is given as “binds”.

B2: GST-FAM104A isoform 2 (natural protein)
chain: not shown
Turning to B2, the binding result in assay [1] is reported as “binds”.

B3: biotinylated peptide spanning the conserved C-terminal alpha-helix and flanking residues of FAM104A (C180-G203 of isoform 1) (peptide)
peptide: Biotin-CQGLYFHINQTLREAHFHSLQHRG-OH
SMILES: CC[C@H](C)[C@H](NC(=O)[C@H](Cc1c[nH]cn1)NC(=O)[C@H](Cc1ccccc1)NC(=O)[C@H](Cc1ccc(O)cc1)NC(=O)[C@H](CC(C)C)NC(=O)CNC(=O)[C@H](CCC(N)=O)NC(=O)[C@H](CS)NC(=O)CCCC[C@@H]1SC[C@@H]2NC(=O)N[C@@H]21)C(=O)N[C@@H](CC(N)=O)C(=O)N[C@@H](CCC(N)=O)C(=O)N[C@H](C(=O)N[C@@H](CC(C)C)C(=O)N[C@@H](CCCNC(=N)N)C(=O)N[C@@H](CCC(=O)O)C(=O)N[C@@H](C)C(=O)N[C@@H](Cc1c[nH]cn1)C(=O)N[C@@H](Cc1ccccc1)C(=O)N[C@@H](Cc1c[nH]cn1)C(=O)N[C@@H](CO)C(=O)N[C@@H](CC(C)C)C(=O)N[C@@H](CCC(N)=O)C(=O)N[C@@H](Cc1c[nH]cn1)C(=O)N[C@@H](CCCNC(=N)N)C(=O)NCC(=O)O)[C@@H](C)O
Turning to B3, the binding result in assay [2] is on record as “binds”.
